These results are taken from paper PMC11884936, “MDC1 mediates Pellino recruitment to sites of DNA double-strand breaks” (Life Science Alliance, 2025).

Usually Kd stands for the equilibrium constant for the complex coming apart. Broadly, the stoichiometry N is the number of molecules, sites or subunits per partner or assembly.

Square brackets hold non-standard residues; d marks the D form. pT = C[C@@H](OP(=O)(O)O)[C@H](N)C(=O)O; pS = N[C@@H](COP(=O)(O)O)C(=O)O

To fix the notation:
B1: MDC1-pT699 phosphopeptide for ITC (AYDLQApTQCFA) (peptide)
peptide: Ac-AYDLQA[pT]QCFA-NH2
SMILES: CC(=O)N[C@@H](C)C(=O)N[C@@H](Cc1ccc(O)cc1)C(=O)N[C@@H](CC(=O)O)C(=O)N[C@@H](CC(C)C)C(=O)N[C@@H](CCC(N)=O)C(=O)N[C@@H](C)C(=O)N[C@H](C(=O)N[C@@H](CCC(N)=O)C(=O)N[C@@H](CS)C(=O)N[C@@H](Cc1ccccc1)C(=O)N[C@@H](C)C(N)=O)[C@@H](C)OP(=O)(O)O
notes: human MDC1, stretch around T699 with alanine at pT+4; source: synthetic peptide
B2: MDC1-pT752 phosphopeptide for ITC (AYEVLApTQPFC) (peptide)
peptide: Ac-AYEVLA[pT]QPFC-NH2
SMILES: CC(=O)N[C@@H](C)C(=O)N[C@@H](Cc1ccc(O)cc1)C(=O)N[C@@H](CCC(=O)O)C(=O)N[C@H](C(=O)N[C@@H](CC(C)C)C(=O)N[C@@H](C)C(=O)N[C@H](C(=O)N[C@@H](CCC(N)=O)C(=O)N1CCC[C@H]1C(=O)N[C@@H](Cc1ccccc1)C(=O)N[C@@H](CS)C(N)=O)[C@@H](C)OP(=O)(O)O)C(C)C
notes: two N-terminal residues that are not the MDC1 residues at this place; human MDC1, stretch around T752; Natural stretch with two added N-terminal residues (AY); source: synthetic peptide
B3: MDC1-pT719 phosphopeptide for ITC (AYEDEPpTQAFA) (peptide)
chain: Ac-AYEDEP[pT]QAFA-NH2
SMILES: CC(=O)N[C@@H](C)C(=O)N[C@@H](Cc1ccc(O)cc1)C(=O)N[C@@H](CCC(=O)O)C(=O)N[C@@H](CC(=O)O)C(=O)N[C@@H](CCC(=O)O)C(=O)N1CCC[C@H]1C(=O)N[C@H](C(=O)N[C@@H](CCC(N)=O)C(=O)N[C@@H](C)C(=O)N[C@@H](Cc1ccccc1)C(=O)N[C@@H](C)C(N)=O)[C@@H](C)OP(=O)(O)O
B4: MDC1-pT765 phosphopeptide for ITC and crystallisation (AYEDSEpTQPFD) (peptide)
peptide: Ac-AYEDSE[pT]QPFD-NH2
SMILES: CC(=O)N[C@@H](C)C(=O)N[C@@H](Cc1ccc(O)cc1)C(=O)N[C@@H](CCC(=O)O)C(=O)N[C@@H](CC(=O)O)C(=O)N[C@@H](CO)C(=O)N[C@@H](CCC(=O)O)C(=O)N[C@H](C(=O)N[C@@H](CCC(N)=O)C(=O)N1CCC[C@H]1C(=O)N[C@@H](Cc1ccccc1)C(=O)N[C@@H](CC(=O)O)C(N)=O)[C@@H](C)OP(=O)(O)O
notes: two N-terminal residues that are not the MDC1 residues at this place; human MDC1, stretch around T765; Natural stretch with two added N-terminal residues (AY); The crystallisation methods name only 'the MDC1-pT765 phosphopeptide'; also called MDC1-pT765 (Site 4) phosphopeptide; MDC1 p765 peptide; source: synthetic peptide
B5: IRAK1-pT141(+3Y) phosphopeptide (AYSSASpTFLYP) (peptide)
peptide: Ac-AYSSAS[pT]FLYP-NH2
SMILES: CC(=O)N[C@@H](C)C(=O)N[C@@H](Cc1ccc(O)cc1)C(=O)N[C@@H](CO)C(=O)N[C@@H](CO)C(=O)N[C@@H](C)C(=O)N[C@@H](CO)C(=O)N[C@H](C(=O)N[C@@H](Cc1ccccc1)C(=O)N[C@@H](CC(C)C)C(=O)N[C@@H](Cc1ccc(O)cc1)C(=O)N1CCC[C@H]1C(N)=O)[C@@H](C)OP(=O)(O)O
notes: two N-terminal residues as in the other ITC peptides; IRAK1, stretch around T141 with tyrosine at pT+3; also called IRAK-pT141(+3Y); source: synthetic peptide
B6: H2AX-pS139 phosphopeptide for ITC (GGKATQApSQEY) (peptide)
chain: Ac-GGKATQA[pS]QEY-NH2
SMILES: CC(=O)NCC(=O)NCC(=O)N[C@@H](CCCCN)C(=O)N[C@@H](C)C(=O)N[C@H](C(=O)N[C@@H](CCC(N)=O)C(=O)N[C@@H](C)C(=O)N[C@@H](COP(=O)(O)O)C(=O)N[C@@H](CCC(N)=O)C(=O)N[C@@H](CCC(=O)O)C(=O)N[C@@H](Cc1ccc(O)cc1)C(N)=O)[C@@H](C)O

The first assay addresses T1, Pellino 1 FHA (PELI1 residues 13-273) (human, UniProt Q96FA3 13-273).
T1 construct: Cloned into pGEX-6P1; same preparation for ITC and crystallography by the methods; also called PELI1 (13–273); N-terminal PELI1 fragment; source: E. coli BL21 (DE3), purified (Glutathione Sepharose, 3C cleavage, gel filtration); not shown: GST, N-terminal, cleaved
T1 sequence (looked up): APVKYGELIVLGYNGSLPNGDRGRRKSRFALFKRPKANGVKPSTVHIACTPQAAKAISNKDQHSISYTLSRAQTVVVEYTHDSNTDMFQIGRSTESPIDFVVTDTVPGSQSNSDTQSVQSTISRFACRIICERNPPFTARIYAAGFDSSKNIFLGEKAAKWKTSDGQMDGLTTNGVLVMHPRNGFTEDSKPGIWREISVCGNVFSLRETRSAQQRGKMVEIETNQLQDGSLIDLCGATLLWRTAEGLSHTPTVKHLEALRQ
The assay can be described thus: ITC; peptide in the syringe (typically 160 μM), protein in the cell (16 μM); 25 mM HEPES pH 7.0, 200 mM NaCl, 1 mM TCEP; single-site binding model. Conditions: both partners purified.
In the case of B1, the Kd was 2010 nM, the dH is -18.5 kcal/mol and the “stoichiometry N” value turned out to be 0.36.
Regarding B2, the affinity, expressed as Kd, was 1140 nM; the dH was -18.5 kcal/mol; the “stoichiometry N” value came to 0.74.
With B3, the Kd was determined as 1140 nM, the dH is -21.8 kcal/mol and the “stoichiometry N” value was found to be 0.78.
For B4 the same measures were 230 nM, -22 kcal/mol and 0.62.
For B5 the same measures were 420 nM, -17.4 kcal/mol and 0.7.

A further assay addresses T2, Pellino 2 FHA (PELI2 residues 15-275) (human, UniProt Q9HAT8 15-275).
T2 construct: Cloned into pGEX-6P1; also called PELI2 (15–273); N-terminal PELI2 fragment; source: E. coli BL21 (DE3), purified (Glutathione Sepharose, 3C cleavage, gel filtration); not shown: GST, N-terminal, cleaved
T2 sequence (looked up): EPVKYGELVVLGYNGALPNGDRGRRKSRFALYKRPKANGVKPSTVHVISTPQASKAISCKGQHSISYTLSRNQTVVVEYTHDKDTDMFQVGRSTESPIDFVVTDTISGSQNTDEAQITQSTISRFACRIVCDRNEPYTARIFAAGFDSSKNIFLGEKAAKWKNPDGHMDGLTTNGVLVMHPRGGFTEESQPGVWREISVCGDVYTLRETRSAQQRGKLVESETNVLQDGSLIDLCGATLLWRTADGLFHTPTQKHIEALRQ
Described as above. Conditions: both partners purified.
On to B1, for which the Kd turned out to be 1120 nM, the dH is -19.9 kcal/mol and the “stoichiometry N” value came to 0.55.
For the molecule B2, the Kd is 1060 nM, the dH was -28.2 kcal/mol and the “stoichiometry N” value was determined as 0.69.
In the case of B3, binding was put at a Kd of 1220 nM, the dH is -34.7 kcal/mol and the “stoichiometry N” value was found to be 0.52.
Consider B4, for which the Kd was determined as 370 nM, the dH is -32.7 kcal/mol and the “stoichiometry N” value came out at 0.69.
As to B5, the Kd was determined as 700 nM, the dH is -25.8 kcal/mol and the “stoichiometry N” value was 0.59.

In the next assay the target is T3, MDC1 BRCT-repeat fragment (human).
T3 construct: MDC1, BRCT-repeat fragment; source: purified
The assay is described as above. Conditions: both partners purified.
Take B6: binding was characterised by a dissociation constant (Kd) of 850 nM, the dH is -13.9 kcal/mol and the “stoichiometry N” value was 0.6.
